Data taken from paper PMC8546571, “Methylation of PhoP by CheR Regulates Salmonella Virulence” (mBio, 2021).

Columns and labels:
[1] = tested on: PhoP from cheR-overexpressing cells (methylated PhoP) (Salmonella enterica serovar Typhimurium 14028S); assay: ITC; details: EMSA: 25 mM Tris-HCl pH 8.0, 50 mM KCl, 5 mM MgCl2, 0.5 mM EDTA, 10% glycerol, room temp 20 min, 1.6 pmol probe in 10 ul; ITC: 6.15 uM DNA into 0.6 uM PhoP …
[2] = tested on: PhoP from control Salmonella cells (Salmonella enterica serovar Typhimurium 14028S); assay: ITC; details: EMSA: 25 mM Tris-HCl pH 8.0, 50 mM KCl, 5 mM MgCl2, 0.5 mM EDTA, 10% glycerol, room temp 20 min, 1.6 pmol probe in 10 ul; ITC: 6.15 uM DNA into 0.6 uM PhoP …
[3] = molecular target: the molecule itself; assay: cross-linking; purified His-tagged PhoP incubated with 1 mM DSS in 50 mM HEPES-Na pH 7.5, 150 mM NaCl, 10 mM MgCl2, 20% glycerol, 0.05% Tween 20, 25°C, 30 min; Western blot with anti-His antibody; monomer to dimer

| Molecule | Kd [1] | Kd [2] | binding result [3] |
| --- | --- | --- | --- |
| phoP promoter DNA / PhoP box consensus (ITC) | 0.476 nM | 0.122 nM |  |
| wild-type PhoP (6×His-tagged, recombinant) (natural protein, PhoP, response regulator of the PhoP/PhoQ two-component system, S. Typhimurium strain 14028S; phoP PCR amplified from genomic DNA and cloned into pQE80; also called PhoP WT; source: E. coli BL21, purified (Ni-NTA); not shown: His6, C-terminal, kept) MMRVLVVEDNALLRHHLKVQLQDSGHQVDAAEDAREADYYLNEHLPDIAIVDLGLPDEDGLSLIRRWRSSDVSLPVLVLTAREGWQDKVEVLSSGADDYVTKPFHIEEVMARMQALMRRNSGLASQVINIPPFQVDLSRRELSVNEEVIKLTAFEYTIMETLIRNNGKVVSKDSLMLQLYPDAELRESHTIDVLMGRLRKKIQAQYPHDVITTVRGQGYLFELR |  |  | binds |
| PhoP D9A variant (natural protein, PhoP, S. Typhimurium strain 14028S, with D9A; source: E. coli BL21, purified (Ni-NTA); not shown: His6, C-terminal, kept) MMRVLVVEANALLRHHLKVQLQDSGHQVDAAEDAREADYYLNEHLPDIAIVDLGLPDEDGLSLIRRWRSSDVSLPVLVLTAREGWQDKVEVLSSGADDYVTKPFHIEEVMARMQALMRRNSGLASQVINIPPFQVDLSRRELSVNEEVIKLTAFEYTIMETLIRNNGKVVSKDSLMLQLYPDAELRESHTIDVLMGRLRKKIQAQYPHDVITTVRGQGYLFELR |  |  | binds |
| PhoP E107A variant (natural protein, PhoP, S. Typhimurium strain 14028S, with E107A; source: E. coli BL21, purified (Ni-NTA); not shown: His6, C-terminal, kept) MMRVLVVEDNALLRHHLKVQLQDSGHQVDAAEDAREADYYLNEHLPDIAIVDLGLPDEDGLSLIRRWRSSDVSLPVLVLTAREGWQDKVEVLSSGADDYVTKPFHIAEVMARMQALMRRNSGLASQVINIPPFQVDLSRRELSVNEEVIKLTAFEYTIMETLIRNNGKVVSKDSLMLQLYPDAELRESHTIDVLMGRLRKKIQAQYPHDVITTVRGQGYLFELR |  |  | binds |
| PhoP E8A variant (natural protein, PhoP, S. Typhimurium strain 14028S, with E8A; source: E. coli BL21, purified (Ni-NTA); not shown: His6, C-terminal, kept) MMRVLVVADNALLRHHLKVQLQDSGHQVDAAEDAREADYYLNEHLPDIAIVDLGLPDEDGLSLIRRWRSSDVSLPVLVLTAREGWQDKVEVLSSGADDYVTKPFHIEEVMARMQALMRRNSGLASQVINIPPFQVDLSRRELSVNEEVIKLTAFEYTIMETLIRNNGKVVSKDSLMLQLYPDAELRESHTIDVLMGRLRKKIQAQYPHDVITTVRGQGYLFELR |  |  | binds |
| PhoP purified from the bacteria with an endogenous level of cheR expression (natural protein, PhoP, S. Typhimurium strain 14028S, His-tagged and purified from Salmonella; also called PhoP from control cells; PhoP isolated from the wild-type strain; source: S. Typhimurium with an endogenous level of cheR expression, purified (His tag); not shown: His6, C-terminal, kept) MMRVLVVEDNALLRHHLKVQLQDSGHQVDAAEDAREADYYLNEHLPDIAIVDLGLPDEDGLSLIRRWRSSDVSLPVLVLTAREGWQDKVEVLSSGADDYVTKPFHIEEVMARMQALMRRNSGLASQVINIPPFQVDLSRRELSVNEEVIKLTAFEYTIMETLIRNNGKVVSKDSLMLQLYPDAELRESHTIDVLMGRLRKKIQAQYPHDVITTVRGQGYLFELR |  |  | binds |
